Laboratory results taken from patent US20250154279A1 (BEIGENE, published 2025).
Positions count from the first letter of the chain named. Names may count otherwise. One block for each binder: values may come before it.

Assays:
[1] = molecular target: T1, human CD137 over-expressed on HuT78 cells (HuT78/CD137) (human, UniProt Q07011 24-255); assay: flow cytometry on live Hut78/huCD137 cells
T1 construct: also called Hut78/huCD137; native CD137
Protocol: (§1) Briefly, anti-kappa antibody was immobilized on an activated CM5 biosensor chip (Cat.: BR100839, GE Life Sciences). […] Then a serial dilution (6.0 nM to 2150 nM) of human CD137 ECD-mIgG2a or huGPC3-His were flowed over the chip surface and changes in surface plasmon resonance signals were analyzed to calculate the association rates (kₒₙ) and dissociation rates (koff) by using the one-to-one Langmuir binding model (BIA Evaluation Software, GE Life Sciences). The equilibrium dissociation constant (KD) was calculated as the ratio koff/kₒₙ. […] Goat anti-Human IgG was used as secondary antibody to detect antibody binding to the cell surface. EC₅₀ values for dose-dependent binding to human native CD137 were determined by fitting the dose-response data to the four-parameter logistic model with GraphPad Prism™. […] Goat anti-Human IgG was used as secondary antibody to detect antibody binding to the cell surface. EC₅₀ values for dose-dependent binding to human native GPC3 were determined by fitting the dose-response data to the four-parameter logistic model with GraphPad Prism™.

huGPC3-His = molecular target: T2, huGPC3-His (human, UniProt P51654 25-559, limits assumed); assay: SPR (BIAcore T-200), BE-774 captured by anti-kappa antibody, huGPC3-His flowed over
T2 construct: not shown: His tag
Protocol: as §1

human CD137 ECD-mIgG2a [2] = molecular target: T3, human CD137 ECD-mIgG2a (human); assay: SPR (BIAcore T-200), BE-774 captured by anti-kappa antibody, human CD137 ECD-mIgG2a flowed over
T3 construct: also called huCD137
Protocol: as §1

[3] = molecular target: T4, human GPC3 expressed on HepG2 cells (human, UniProt P51654 25-554); assay: flow cytometry on HepG2 cells
T4 construct: also called native huGPC3; native GPC3
Protocol: as §1

[4] = molecular target: T5, human CD137 (Cat.: 41B-H5256, Acrobio, CHINA) (human, UniProt Q07011 24-186); assay: SPR
T5 construct: Bought protein
Protocol: (§2) The binding kinetics of the antibodies were measured using surface plasmon resonance (SPR). SPR was used to measure the on-rate constant (Kₐ) and off-rate constant (Kd) of the antibodies to recombinant proteins of CD137 and GPC3 and then determined the affinity constant (KD).

[5] = molecular target: T6, cynomolgus monkey CD137 ECD (cynomolgus monkey); assay: SPR
T6 construct: also called Cyno CD137; Cyno CD137 ECD
T6 chain: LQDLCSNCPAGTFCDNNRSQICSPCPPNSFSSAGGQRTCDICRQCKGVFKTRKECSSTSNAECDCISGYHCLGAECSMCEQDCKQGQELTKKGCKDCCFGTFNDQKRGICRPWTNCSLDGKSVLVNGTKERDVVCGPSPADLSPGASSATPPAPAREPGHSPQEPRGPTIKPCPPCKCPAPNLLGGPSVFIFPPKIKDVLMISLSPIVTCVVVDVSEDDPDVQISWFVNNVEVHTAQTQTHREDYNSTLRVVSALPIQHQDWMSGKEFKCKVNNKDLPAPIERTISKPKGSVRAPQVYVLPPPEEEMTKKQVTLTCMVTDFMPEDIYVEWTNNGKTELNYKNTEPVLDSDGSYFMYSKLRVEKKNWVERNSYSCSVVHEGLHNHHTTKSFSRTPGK
Protocol: as §2

[6] = molecular target: T7, human GPC3 (Cat.: 10088-H08H, Sino Biological, CHINA) (human, UniProt P51654 25-559); assay: SPR
T7 construct: Bought protein
Protocol: as §2

[7] = molecular target: T8, cynomolgus monkey GPC3 (Cat.: GP3-C5225, Acrobio, CHINA) (cynomolgus monkey, UniProt A0A2K5VK50 24-558); assay: SPR
T8 construct: also called Cyno GPC3
Protocol: as §2

[8] = molecular target: T1, human CD137 over-expressed on HuT78 …; assay: FACS on HuT78/CD137 cells
[9] = molecular target: T4, human GPC3 expressed on HepG2 cells; assay: FACS on HepG2 cells
[10] = molecular target: T1, human CD137 over-expressed on HuT78 …; assay: flow cytometry on HuT78/CD137 cells, detection anti-hFc 647, no CD137L added
mouse CD137 = molecular target: T9, mouse CD137 (mouse, UniProt P20334 24-187, limits assumed); assay: antigen ELISA
T9 construct: Coated antigen in ELISA; construct not described
T9 sequence (looked up): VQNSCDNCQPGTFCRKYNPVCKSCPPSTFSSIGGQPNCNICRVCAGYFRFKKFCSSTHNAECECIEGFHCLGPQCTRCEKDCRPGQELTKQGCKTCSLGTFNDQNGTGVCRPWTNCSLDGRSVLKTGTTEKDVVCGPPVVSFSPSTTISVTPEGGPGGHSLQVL
Protocol: (§3) For antigen ELISA, a Maxisorp immunoplate was coated with antigens and blocked with 3% BSA (w/v) in PBS buffer (blocking buffer). Monoclonal VHH antibodies were blocked with blocking buffer for 30 minutes and added to wells of the ELISA plate for 1 hour. After washes with PBST, bound antibodies were detected using HRP-conjugated anti-human IgG antibody (Sigma, A0170) and 3,3′,5,5′-tetramethylbenzidine substrate (Cat.: 00-4201-56, eBioscience, USA). Ligand competition was also applied in a ELISA assay.

huCD137-his = molecular target: T10, huCD137-his; assay: antigen ELISA, coated huCD137-his, detection with HRP anti-human IgG, single antibody concentration not given; competitor where added: 20 ug/ml CD137L
T10 construct: The sheet prints only 'huCD137-his'; also called human CD137-ECD-his
T10 extracellular domain with C-terminal His tag: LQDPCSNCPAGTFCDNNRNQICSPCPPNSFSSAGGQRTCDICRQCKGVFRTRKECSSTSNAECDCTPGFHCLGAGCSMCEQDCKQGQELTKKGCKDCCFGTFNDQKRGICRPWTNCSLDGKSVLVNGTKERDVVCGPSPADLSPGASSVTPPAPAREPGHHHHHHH
Protocol: as §3

human CD137 ECD-mIgG2a [11] = molecular target: T3, human CD137 ECD-mIgG2a; assay: antigen ELISA, coated huCD137-mIgG2a, detection with HRP anti-human IgG, single antibody concentration not given; competitor where added: 20 ug/ml CD137L
Protocol: as §3

T1 sequence (Q07011 24-255 limits assumed): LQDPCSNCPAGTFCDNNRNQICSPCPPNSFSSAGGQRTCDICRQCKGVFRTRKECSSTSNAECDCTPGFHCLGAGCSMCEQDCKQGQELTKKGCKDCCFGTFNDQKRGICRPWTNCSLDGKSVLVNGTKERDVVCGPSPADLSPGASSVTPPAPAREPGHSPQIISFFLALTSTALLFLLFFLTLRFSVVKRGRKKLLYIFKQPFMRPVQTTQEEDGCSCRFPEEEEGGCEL
T7 sequence (P51654 25-559 limits assumed): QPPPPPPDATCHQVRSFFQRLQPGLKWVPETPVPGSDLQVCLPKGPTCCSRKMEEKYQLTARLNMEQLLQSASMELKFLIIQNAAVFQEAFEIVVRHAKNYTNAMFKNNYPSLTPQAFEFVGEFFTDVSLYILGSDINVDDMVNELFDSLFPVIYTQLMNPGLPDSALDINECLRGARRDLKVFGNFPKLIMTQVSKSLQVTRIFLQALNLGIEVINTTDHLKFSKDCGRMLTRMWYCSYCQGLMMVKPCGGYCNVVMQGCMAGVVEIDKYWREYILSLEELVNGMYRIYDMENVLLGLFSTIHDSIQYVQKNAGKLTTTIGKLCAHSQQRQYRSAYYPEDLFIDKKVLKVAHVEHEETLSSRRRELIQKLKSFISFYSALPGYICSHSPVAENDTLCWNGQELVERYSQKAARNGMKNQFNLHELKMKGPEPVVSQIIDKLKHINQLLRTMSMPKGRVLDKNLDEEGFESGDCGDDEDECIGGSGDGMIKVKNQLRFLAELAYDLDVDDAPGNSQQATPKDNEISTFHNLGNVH
T2 sequence (P51654 25-559 limits assumed): as above
T4 sequence (P51654 25-554 limits assumed): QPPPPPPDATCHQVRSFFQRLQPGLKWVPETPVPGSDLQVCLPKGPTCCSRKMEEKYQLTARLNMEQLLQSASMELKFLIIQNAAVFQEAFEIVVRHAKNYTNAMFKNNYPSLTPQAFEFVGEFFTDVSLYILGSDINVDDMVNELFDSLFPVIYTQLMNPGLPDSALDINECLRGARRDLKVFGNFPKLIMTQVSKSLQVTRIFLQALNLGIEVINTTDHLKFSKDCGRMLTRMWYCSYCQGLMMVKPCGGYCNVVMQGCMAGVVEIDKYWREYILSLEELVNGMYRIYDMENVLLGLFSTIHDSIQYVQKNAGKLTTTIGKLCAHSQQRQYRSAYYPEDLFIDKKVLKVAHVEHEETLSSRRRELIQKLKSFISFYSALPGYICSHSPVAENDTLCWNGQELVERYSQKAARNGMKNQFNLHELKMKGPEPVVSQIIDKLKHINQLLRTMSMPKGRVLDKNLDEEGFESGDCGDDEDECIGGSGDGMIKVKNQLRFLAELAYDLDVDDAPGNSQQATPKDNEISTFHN

EC50 [1]: 0.7 nM
Kd (huGPC3-His): 1.01 nM
koff (huGPC3-His): 0.00022 s⁻¹
kon (huGPC3-His): 218000 M⁻¹ s⁻¹
Kd (human CD137 ECD-mIgG2a [2]): 0.529 nM
koff (human CD137 ECD-mIgG2a [2]): 0.000425 s⁻¹
kon (human CD137 ECD-mIgG2a [2]): 804000 M⁻¹ s⁻¹
EC50 [3]: 0.9 nM
B1: BE-774 (anti-GPC3 x CD137 bispecific antibody, GPC3 antibody + VHH BGA-9612, IgG1mf Fc-YTE) (bispecific antibody)
heavy: QVQLVQSGAEVKKPGASVKVSCKASGYTFTDYEMHWVRQAPGQGLEWMGALDPKTGDTAYSQKFKGRVTLTADKSTSTAYMELSSLTSEDTAVYYCTRFYSYTYWGQGTLVTVSSASTKGPSVFPLAPSSKSTSGGTAALGCLVKDYFPEPVTVSWNSGALTSGVHTFPAVLQSSGLYSLSSVVTVPSSSLGTQTYICNVNHKPSNTKVDKKVEPKSCDKTHTCPPCPAPPAAGPSVFLFPPKPKDTLYITREPEVTCVVVDVSHEDPEVKFNWYVDGVEVHNAKTKPREEQYNSTYRVVSVLTVLHQDWLNGKEYKCKVSNKALAAPIEKTISKAKGQPREPQVYTLPPSREEMTKNQVSLTCLVKGFYPSDIAVEWESNGQPENNYKTTPPVLDSDGSFFLYSKLTVDKSRWQQGNVFSCSVMHEALHNHYTQKSLSLSPGKGGGGSEVQLVESGGGTVQPGDSLRLSCAASGRTFDNYAVGWFRQAPGKERQYVGTYWSGYAHYGDFENNRFTISRDNAKNTVYLQMDNLKPEDTAVYYCAISLKYPMATVTPDYQGQGTQVTVSS
light: DVVMTQSPLSLPVTPGEPASISCRSSQSLVHSNRNTYLHWYLQKPGQSPQLLIYKVSNRFSGVPDRFSGSGSGTDFTLKISRVEAEDVGVYYCSQNTHVPPTFGQGTKLEIKRTVAAPSVFIFPPSDEQLKSGTASVVCLLNNFYPREAKVQWKVDNALQSGNSQESVTEQDSKDSTYSLSSTLTLSKADYEKHKVYACEVTHQGLSSPVTKSFNRGEC

Kd [4]: 3.6 nM
koff [4]: 0.00042 s⁻¹
kon [4]: 120000 M⁻¹ s⁻¹
Kd [5]: 4.4 nM
koff [5]: 0.00055 s⁻¹
kon [5]: 130000 M⁻¹ s⁻¹
Kd [6]: 2.4 nM
koff [6]: 0.00014 s⁻¹
kon [6]: 58000 M⁻¹ s⁻¹
Kd [7]: 0.53 nM
koff [7]: 0.00011 s⁻¹
kon [7]: 210000 M⁻¹ s⁻¹
EC50 [8]: 0.69 nM
EC50 [9]: 1.09 nM
EC50 (read off the curve) [10]: ~0.1 µg/mL
B2: BE-915 (anti-GPC3 x CD137 bispecific antibody, GPC3 antibody + VHH BGA-2524, IgG1mf Fc-YTE) (bispecific antibody)
heavy: B1 heavy with T460L, D465G, Q495E, D531N, K534R
light: B1 light

binding result (mouse CD137): no binding
binding result (huCD137-his): binds
binding result (human CD137 ECD-mIgG2a [11]): binds
B3: BGA-9612 VHH-Fc (camelid anti-huCD137 VHH fused at the N terminal of human IgG1 Fc-null with a G4S linker) (VHH)
VHH: QVQLVESGGGTVQPGDSLRLSCAASGRTFDNYAVGWFRQAPGKERQYVGTYWSGYAHYGDFENNRFTISRDNAKNTVYLQMDNLKPEDTAVYYCAISLKYPMATVTPDYQGQGTQVTVSS
